B1: ATL3 (parent)
chain: QELEEEIKELYENFCKHNGSKNVF
B2: PTPRD (parent)
chain: ITWFKDFLPVDTSNNNGRIKQLRS

Variants of: B1
Test: protein stability index of a GFP-peptide fusion (GPS, HEK-293T) (PSI 1-6); higher = more stable
Settings: c terminus: a fixed tail appended
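Also: lentivirally expressed fusions sorted by FACS into six bins by GFP to DsRed ratio, PSI derived from sequencing read proportions per bin multiplied by bin number.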

Protein stability index of substitutions, site by site:
N22: S 2.96 | T 2.16 | W 1.48 | P 3.25 | Q 2.98 | Y 2.05 | M 2.8 | V 2.62 | R 3.3
F24: A 3.45 | Q 2.93 | P 2.74 | L 2.56 | R 3.24 | Y 2.65 | W 2.46 | N 3.07 | V 3.01 | I 2.48 | D 2.38 | S 3.28 | H 3.37 | C 3.17 | T 3.11 | G 2.73 | M 3.06 | E 2.9
V23: L 2.68 | G 2.94 | I 2.62 | C 2.27 | K 2.89 | Q 2.68 | N 3.06 | F 2.22 | Y 1.94 | T 2.49 | R 3.44 | M 3.24 | P 2.61 | E 3.07 | S 2.38 | D 2.16 | W 2.85 | H 3.56 | A 2.73

Variants of: B2
Test: as above
Settings: c terminus: a fixed tail appended

Protein stability index, by site and new letter:
T2: Y 1.68 | K 2.03 | N 2 | I 2.18 | R 1.59 | D 1.53 | M 1.96 | P 3 | F 2.41 | A 2.34 | H 2.15 | W 2.21 | V 1.86 | E 2.33 | L 1.41 | G 2.78 | C 2.09 | Q 1.84 | S 2.12
N16: A 1.78 | D 1.88 | C 2.09
D6: F 3.07 | C 2.26 | A 1.78 | P 1.85 | V 2.3 | E 2.36 | Q 1.4 | I 3.07 | R 2.37 | K 1.85 | H 1.9 | W 2.26 | T 1.6 | M 2.14 | S 2.27 | N 1.94 | Y 2.85 | L 3.08 | G 2.27
F7: E 2.45 | D 2.74 | Y 1.99 | N 2.47 | S 2.36 | I 2.26 | V 1.85 | M 2.46 | K 1.88 | L 2.41 | R 1.8 | A 2.45 | Q 2.05 | P 2.32 | T 2.38 | C 2.31 | G 2.25 | H 2.76 | W 1.82
I1: R 3.03 | N 3.69 | S 3.17 | W 2.17 | K 2.99 | V 2.15 | L 2.33 | Y 1.92 | G 3.39 | Q 2.71 | T 3.02 | H 3.47 | F 2.03 | P 3.97 | C 1.9 | A 3.26 | M 2.62 | D 3.88 | E 3.66
F4: M 1.59 | D 3.25 | T 2.03 | V 1.87 | N 2.57 | I 1.62 | P 2.74 | C 1.94 | K 2.37 | A 2.17 | R 2.49 | E 3.97 | H 2.27 | L 1.87 | W 2.02 | Q 2.21 | Y 1.95 | S 1.57 | G 3.35
N14: L 1.96 | W 2.16 | G 1.92 | C 1.52 | S 2.94 | I 1.85 | P 2.37 | M 1.79 | D 1.66 | Y 1.51 | F 1.5 | V 1.76 | Q 2.02 | K 2.04 | H 1.37 | A 2.03 | T 1.76 | E 2.05 | R 1.98
T12: Q 2.25 | H 1.48 | F 1.65 | V 2.42 | N 1.51 | Y 1.55 | G 1.83 | K 2.01 | R 1.9 | D 1.99 | I 2.01 | E 2.06 | S 1.94 | A 1.98 | W 1.84 | M 2.32 | P 2.03 | L 1.94 | C 1.55
W3: D 3.43 | C 2.82 | M 2.95 | P 3.75 | S 3.62 | T 3.3 | V 2.46 | Y 2.95 | A 3.76 | G 3.03 | Q 3.13 | R 3.1 | F 2.25 | I 1.93 | K 2.85 | H 3.33 | E 4.07 | N 3.23 | L 2.31
S13: V 2.38 | H 2.05 | N 1.68 | R 1.88 | A 1.62 | K 1.77 | D 2.22 | M 2.17 | Q 1.85 | C 1.54 | Y 2.05 | E 1.7 | G 1.77 | F 1.52 | L 1.88 | P 2.34 | T 1.95 | W 1.65 | I 1.41
N15: M 1.8 | R 1.71 | H 1.48 | T 3.44 | V 1.74 | I 1.58 | S 1.67 | Y 1.87 | F 1.6 | C 2.26 | P 1.82 | L 2.37 | K 2.54 | W 2.17 | A 1.61 | G 1.72 | Q 1.76 | E 1.69 | D 1.74
L8: Y 1.64 | S 2.04 | G 2 | A 2.14 | I 2.32 | C 1.81 | M 1.49 | E 1.85 | Q 1.78 | H 1.93 | T 2.23 | P 1.96 | R 2.41 | F 1.88 | K 2.28 | V 1.77 | W 1.76 | N 2.1 | D 2.31
V10: Q 2.17 | G 2.28 | N 2.34 | T 1.76 | F 2.65 | E 2.23 | C 2.05 | A 2.03 | H 2.07 | W 2.62 | R 1.82 | M 1.86 | P 2.26 | S 2.15 | I 2.49 | L 1.95 | D 2.39 | K 2.07 | Y 1.89
K5: N 2.12 | F 1.97 | Q 2.07 | G 2.17 | R 1.79 | W 1.66 | V 1.51 | S 2.37 | H 2.06 | D 2.44 | Y 2.75 | E 2.91 | M 2.43 | L 2.08 | C 2.25 | T 2.1 | I 2.19 | A 1.98 | P 2.24
D11: E 1.99 | G 1.99 | Q 1.84 | H 1.73 | N 2.01 | F 1.9 | A 1.9 | T 1.61 | Y 1.67 | P 2.06 | V 1.86 | L 1.62 | K 1.71 | M 2.16 | R 1.35 | S 2.06 | I 2.44 | W 2.33 | C 2.23
P9: H 1.45 | W 1.75 | L 2.84 | F 1.93 | N 2.28 | K 1.96 | M 2.31 | E 2 | C 1.58 | D 2.09 | T 1.42 | R 1.43 | S 2.13 | Q 2.12 | Y 1.66 | A 2 | I 2.02 | V 2.04 | G 1.72

Reference: the supplement of paper PMC10567573
